Assay results from ChEMBL document CHEMBL1155874, “Carbonic anhydrase activators: Activation of the human cytosolic isozyme III and membrane-associated isoform IV with amino acids and amines” (Bioorg Med Chem Lett, 2008).

How the values were obtained:
[1] = substrate: N[C@@H](Cc1c[nH]cn1)C(=O)O; assay: (§1) Activity of human recombinant CA3 at 10 uM stopped-flow CO2 hydration method
[2] = substrate: N[C@H](Cc1c[nH]cn1)C(=O)O; assay: as §1
[3] = substrate: N[C@@H](Cc1c[nH]cn1)C(=O)O; assay: (§2) Activity of human recombinant truncated CA4 at 10 uM stopped-flow CO2 hydration method
[4] = substrate: N[C@H](Cc1c[nH]cn1)C(=O)O; assay: as §2

| Protein | kcat [1] [×10⁴ /s] | kcat [2] [×10⁴ /s] | kcat [3] [×10⁶ /s] | kcat [4] [×10⁶ /s] |
| --- | --- | --- | --- | --- |
| Carbonic anhydrase 3 (Homo sapiens), P07451 (protein) MAKEWGYASHNGPDHWHELFPNAKGENQSPVELHTKDIRHDPSLQPWSVSYDGGSAKTILNNGKTCRVVFDDTYDRSMLRGGPLPGPYRLRQFHLHWGSSDDHGSEHTVDGVKYAAELHLVHWNPKYNTFKEALKQRDGIAVIGIFLKIGHENGEFQIFLDALDKIKTKGKEAPFTKFDPSCLFPACRDYWTYQGSFTTPPCEECIVWLLLKEPMTVSSDQMAKLRSLLSSAENEPPVPLVSNWRPPQPINNRVVRASFK | 1.8 | 16.9 |  |  |
| Carbonic anhydrase 4 (Homo sapiens), P22748 (protein) MRMLLALLALSAARPSASAESHWCYEVQAESSNYPCLVPVKWGGNCQKDRQSPINIVTTKAKVDKKLGRFFFSGYDKKQTWTVQNNGHSVMMLLENKASISGGGLPAPYQAKQLHLHWSDLPYKGSEHSLDGEHFAMEMHIVHEKEKGTSRNVKEAQDPEDEIAVLAFLVEAGTQVNEGFQPLVEALSNIPKPEMSTTMAESSLLDLLPKEEKLRHYFRYLGSLTTPTCDEKVVWTVFREPIQLHREQILAFSQKLYYDKEQTVSMKDNVRPLQQLGQRTVIKSGAPGRPLPWALPALLGPMLACLLAGFLR |  |  | 4.3 | 3.8 |
